According to IntAct's records for PubMed 29039417:

B1: BBSome complex member BBS2 (Homo sapiens), Q9BXC9 (parent)
chain: MLLPVFTLKLRHKISPRMVAIGRYDGTHPCLAAATQTGKVFIHNPHTRNQHVSASRVFQSPLESDVSLLSINQAVSCLTAGVLNPELGYDALLVGTQTNLLAYDVYNNSDLFYREVADGANAIVLGTLGDISSPLAIIGGNCALQGFNHEGSDLFWTVTGDNVNSLALCDFDGDGKKELLVGSEDFDIRVFKEDEIVAEMTETEIVTSLCPMYGSRFGYALSNGTVGVYDKTSRYWRIKSKNHAMSIHAFDLNSDGVNELITGWSNGKVDARSDRTGEVIFKDNFSSAIAGVVEGDYRMDGHIQLICCSVDGEIRGYLPGTAEMRGNLMDTSAEQDLIRELSQKKQNLLLELRNYEENAKAELASPLNEADGHRGIIPANTRLHTTLSVSLGNETQTAHTELRISTSNDTIIRAVLIFAEGIFTGESHVVHPSIHNLSSSICIPIVPPKDVPVDLHLKAFVGYRSSTQFHVFESTRQLPRFSMYALTSLDPASEPISYVNFTIAERAQRVVVWLGQNFLLPEDTHIQNAPFQVCFTSLRNGGHLHIKIKLSGEITINTDDIDLAGDIIQSMASFFAIEDLQVEADFPVYFEELRKVLVKVDEYHSVHQKLSADMADHSNLIRSLLVGAEDARLMRDMKTMKSRYMELYDLNRDLLNGYKIRCNNHTELLGNLKAVNQAIQRAGRLRVGKPKNQVITACRDAIRSNNINTLFKIMRVGTASS
partner: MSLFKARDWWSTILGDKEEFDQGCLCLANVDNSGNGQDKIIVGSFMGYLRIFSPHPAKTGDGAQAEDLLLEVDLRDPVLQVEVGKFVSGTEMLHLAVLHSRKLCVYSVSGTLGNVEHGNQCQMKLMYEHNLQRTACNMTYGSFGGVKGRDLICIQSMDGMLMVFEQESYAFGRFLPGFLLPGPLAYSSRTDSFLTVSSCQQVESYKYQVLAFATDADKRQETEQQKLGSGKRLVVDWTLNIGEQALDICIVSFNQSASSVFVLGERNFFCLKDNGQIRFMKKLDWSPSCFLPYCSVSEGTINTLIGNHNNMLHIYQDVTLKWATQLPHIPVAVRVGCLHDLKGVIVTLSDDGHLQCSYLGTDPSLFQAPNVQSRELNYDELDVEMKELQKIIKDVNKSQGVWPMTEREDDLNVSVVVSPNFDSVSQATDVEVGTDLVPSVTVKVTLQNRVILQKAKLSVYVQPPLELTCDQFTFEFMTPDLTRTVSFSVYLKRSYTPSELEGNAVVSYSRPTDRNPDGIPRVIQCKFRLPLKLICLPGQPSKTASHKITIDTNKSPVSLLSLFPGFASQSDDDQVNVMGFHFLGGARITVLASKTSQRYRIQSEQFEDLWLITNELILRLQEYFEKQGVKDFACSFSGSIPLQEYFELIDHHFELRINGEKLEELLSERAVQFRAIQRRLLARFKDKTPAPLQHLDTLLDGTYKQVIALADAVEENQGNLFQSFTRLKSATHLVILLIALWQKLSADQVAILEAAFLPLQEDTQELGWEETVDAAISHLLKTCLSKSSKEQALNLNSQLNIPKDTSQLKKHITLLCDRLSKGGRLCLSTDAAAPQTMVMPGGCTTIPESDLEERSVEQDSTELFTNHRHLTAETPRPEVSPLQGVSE

Variants of: B1
Details: with pthb1_human BBS9, Q3SYG4

effect of a mutation on the interaction | Variant
with no effect | S405K
disrupting interaction strength | S405P
with no effect | G392E
with no effect | G392K
with no effect | N408E
with no effect | N408K
with no effect | R403E
with no effect | R403A
with no effect | R403K
with no effect | D409E
with no effect | E394A
with no effect | T406K
with no effect | T406A
with no effect | T406E
with no effect | T397A
with no effect | T397K
with no effect | Q396E
with no effect | Q396A
with no effect | S407A

effect of a mutation on the interaction | Variant
with no effect | S407K
disrupting interaction strength | S388P
with no effect | S388A
with no effect | N393A
with no effect | I412E
disrupting interaction strength | V389S
with no effect | T410K
with no effect | T395K
with no effect | T395A
with no effect | A414K
with no effect | E401K
with no effect | A398K
with no effect | L391K
with no effect | R413E
disrupting interaction strength | R413K
with no effect | T400K
disrupting interaction strength | L402E
with no effect | L402A

More lines, now with the values behind:

Variant | effect of a mutation on the interaction
S405A | with no effect
S405E | with no effect
G392A | with no effect
N408A | disrupting interaction strength
D409A | with no effect
D409K | with no effect
I404E | with no effect
I404A | with no effect
I404K | with no effect
E394K | with no effect
T397E | with no effect
Q396K | with no effect
H399A | with no effect
H399E | with no effect
H399K | with no effect
S407E | with no effect
S407F | disrupting interaction strength
S388K | with no effect
S388E | with no effect
N393K | with no effect
N393E | with no effect
S390K | with no effect
S390E | disrupting interaction strength
S390A | with no effect
S390G | disrupting interaction strength

Variant | effect of a mutation on the interaction
I412K | with no effect
I412A | with no effect
I412R | disrupting interaction strength
V389K | disrupting interaction strength
V389A | with no effect
V389E | disrupting interaction strength
T410E | with no effect
T410A | with no effect
T395E | with no effect
A414V | disrupting interaction strength
A414E | with no effect
E401A | with no effect
A398E | with no effect
A398V | disrupting interaction strength
L391E | with no effect
L391A | with no effect
R413A | with no effect
T400A | with no effect
T400E | with no effect
L402K | disrupting interaction strength
L402C | disrupting interaction strength
I411E | with no effect
I411A | with no effect
I411K | with no effect
